Our source for the K half values is publication PMC6239180.

For data set [1], the target named is hPcf11 (CF II subunit);hClp1 (CF II subunit or alone) (human;human) (UniProt O94913+Q92989). Put plainly: filter binding.
In data set [2] the target is T1, hClp1 (CF II subunit or alone) (human) (UniProt Q92989).
T1 sequence: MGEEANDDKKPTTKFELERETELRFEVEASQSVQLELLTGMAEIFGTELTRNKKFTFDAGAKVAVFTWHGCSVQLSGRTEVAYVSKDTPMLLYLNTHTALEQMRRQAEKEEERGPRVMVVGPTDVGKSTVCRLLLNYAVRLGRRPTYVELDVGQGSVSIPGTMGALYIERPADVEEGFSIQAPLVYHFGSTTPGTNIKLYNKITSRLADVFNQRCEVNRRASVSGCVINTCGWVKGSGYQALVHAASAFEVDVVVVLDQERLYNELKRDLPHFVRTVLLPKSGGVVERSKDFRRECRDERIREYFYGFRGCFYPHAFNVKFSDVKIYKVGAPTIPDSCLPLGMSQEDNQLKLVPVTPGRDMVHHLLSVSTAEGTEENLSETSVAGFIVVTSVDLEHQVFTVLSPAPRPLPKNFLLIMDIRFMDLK
The data set is described as follows: filter binding.

Chain of hPcf11 (CF II subunit);hClp1 (CF II subunit or alone) (human;human) (O94913 whole entry, one chain of several): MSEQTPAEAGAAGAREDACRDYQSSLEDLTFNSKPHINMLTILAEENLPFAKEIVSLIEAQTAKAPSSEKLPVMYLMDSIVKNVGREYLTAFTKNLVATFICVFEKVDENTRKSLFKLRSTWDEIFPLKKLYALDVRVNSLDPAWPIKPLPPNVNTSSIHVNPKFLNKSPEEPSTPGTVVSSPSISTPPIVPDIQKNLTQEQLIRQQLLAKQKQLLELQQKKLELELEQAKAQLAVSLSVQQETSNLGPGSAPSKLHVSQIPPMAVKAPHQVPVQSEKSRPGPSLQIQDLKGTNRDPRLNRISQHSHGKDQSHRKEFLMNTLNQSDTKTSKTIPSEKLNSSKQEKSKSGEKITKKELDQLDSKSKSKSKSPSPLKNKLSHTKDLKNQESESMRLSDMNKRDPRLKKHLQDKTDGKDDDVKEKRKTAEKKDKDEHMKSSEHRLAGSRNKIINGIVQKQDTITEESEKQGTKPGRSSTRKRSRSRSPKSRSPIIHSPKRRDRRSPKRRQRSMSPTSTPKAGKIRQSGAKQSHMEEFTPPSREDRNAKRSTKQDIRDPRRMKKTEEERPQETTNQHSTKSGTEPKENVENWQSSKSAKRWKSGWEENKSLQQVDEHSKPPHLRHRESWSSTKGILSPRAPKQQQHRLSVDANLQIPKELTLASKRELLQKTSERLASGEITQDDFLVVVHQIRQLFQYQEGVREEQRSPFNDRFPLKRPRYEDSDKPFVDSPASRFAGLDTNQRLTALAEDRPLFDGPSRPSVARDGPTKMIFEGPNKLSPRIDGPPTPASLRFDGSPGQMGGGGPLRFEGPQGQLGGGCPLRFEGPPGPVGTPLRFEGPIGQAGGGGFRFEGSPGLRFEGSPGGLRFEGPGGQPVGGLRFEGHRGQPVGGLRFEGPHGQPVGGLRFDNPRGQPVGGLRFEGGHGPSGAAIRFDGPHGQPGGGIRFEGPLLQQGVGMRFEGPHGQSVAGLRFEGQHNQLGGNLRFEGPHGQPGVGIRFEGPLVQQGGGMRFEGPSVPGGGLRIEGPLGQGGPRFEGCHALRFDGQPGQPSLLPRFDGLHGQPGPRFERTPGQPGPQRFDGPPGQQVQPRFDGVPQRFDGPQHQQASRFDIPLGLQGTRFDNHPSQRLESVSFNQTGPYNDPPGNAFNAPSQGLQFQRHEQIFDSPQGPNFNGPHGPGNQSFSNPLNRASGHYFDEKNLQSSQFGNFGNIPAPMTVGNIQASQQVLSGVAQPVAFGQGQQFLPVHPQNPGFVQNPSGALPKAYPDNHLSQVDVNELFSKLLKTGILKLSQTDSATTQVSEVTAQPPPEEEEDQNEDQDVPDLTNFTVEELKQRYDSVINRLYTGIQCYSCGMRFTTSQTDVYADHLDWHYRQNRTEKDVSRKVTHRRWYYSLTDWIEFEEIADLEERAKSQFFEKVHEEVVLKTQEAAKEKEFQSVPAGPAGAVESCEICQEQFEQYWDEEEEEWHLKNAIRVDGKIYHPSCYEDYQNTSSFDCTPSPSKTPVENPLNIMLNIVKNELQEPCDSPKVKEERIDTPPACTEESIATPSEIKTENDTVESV

For L3 RNA, the K half in data set [1] worked out at 0.9 nM.
Take SV40 late RNA: the K half came out at 140 nM in data set [2] and 0.4 nM in data set [1].
